In this assay the target is recombinant TdfH (Neisseria gonorrhoeae TonB-dependent transporter, NGO0952) (Neisseria gonorrhoeae). Put plainly: ITC; Nano ITC, 25°C, 1x PBS with 0.05% DDM; TdfH (300 μl, 20 μM) in the cell, CP sample (200 μM) in 20 injections of 2.5 μl; fitted with NanoAnalyze to a two-state (multisite) model, TKO to a single-site model.

For one substance, KD, higher affinity (two-state model) and KD, lower affinity (two-state model) results are on record in paper PMC7251212.

Regarding “mouse calprotectin (heterodimer of mouse S100A8 and S100A9) (from UniProt P27005 1-89; P31725 1-113) (complex)”, the KD, higher affinity (two-state model) came out at 0.72 µM and the KD, lower affinity (two-state model) came out at 51 µM.
